Data from the nanobody polyreactivity screen of Harvey et al. (2022).

Assay: yeast display, Sf9 membrane polyspecificity reagent, FACS + sequencing; frameworks hold sequencing errors
Procedure, shortened: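 Sorting gates, low and high (top ~1%), were placed on anti-HA fluorescence to track expression and on streptavidin fluorescence to track reagent binding. A clone's polyreactivity label is taken from the gate it came out of. The reagent was 10% biotinylated, detergent-solubilized Sf9 membrane, applied for 1 hour at 4 °C to galactose-induced yeast display cells.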

Row | Sequence | polyreactivity (PSR sort gate)
1 | QVQLRESGAGGRQPAPELRGERQYFYWSADGLVSQPPGKEREFVAGIDRGTITNYADSVRGRFTISRDNAKNTVYLQMNSLKPEDTAVYYCNAEYRRRPKLGDEDEYWGHGTQVTVSS | high polyreactivity
2 | QVQLVASAAGLVQAVGSLRLSCAASASTIGYYAMGWSRQAPGKERELVAAISWSGGSTYYADSVKGRFTISRDNAKNTVYLQMNSLKPEDTAVYFCAADTYPDYYLVEYYYWGQGTQVTVSS | low polyreactivity
3 | QVQLVASGGGLVQAGGSLRLSFAASGRNFAYNTMGWYRQAPGKERELVAAITWSGGGKYYADSVKGRFTISRDNAKNTVYLHMNSLKPEDTAVYYCAVVYASPRARYRYYYWGQGTQVTVSS | low polyreactivity
4 | QVQLVASGGRLVQAGGSLRLSCASSGSIFGWYAMGWYRQAPGKERELVAVITSGGSTYYADSVKGRFTISRDNAKNTVYLQMNSLKPVDTAVYYCNARYHAGYKGYNYWGQGTQVTVSS | high polyreactivity
5 | QVQLVDSAGGLVQAGGSLRLSCAASGLTFPPNAMGWYRQAPGKEREFVAVISSGGGSTYYADSVKGRFTISRDNAKNTVYLQMNSLKPEDTAVYYCATEYQDGDTEYYYWGQGTQVTVSS | low polyreactivity
6 | QVQLVDSCGGLVQAGGSLSLSCAASGRTFTRYAMGWYRQAPGKERELVASITNGGGTYYADSVKGRFTISRDNAKNTVYLQMNSLKPEDTAVYYCAKAERVTSHIYYSWGQGTQVTVSS | low polyreactivity
7 | QVQLVDSGAGLVQAGGSLRLSCPASGRIFAVNAMGWYRKAPGKERELVAAINGGGSTNYADSVKGRFTISRDNAKNTVYLQMNSLKPQDTAVYYCAADVGWRSQTRGYYWGQGTQVTVSS | high polyreactivity
8 | QVQLVDSGGAIVQAGGSLRLSCAASGRTYHRNSKGWYRQAPGKERELVAAITGDGRTNYADSVKGRFTISRDNAKNTVFLPINSLKPEDTAVYYCAATFGFFYYHYDYWGQGTQVTVSS | low polyreactivity
9 | QVQLVDSGGGIGQAGASLRLSCAASGRNFAVYAIGWYRQAPGKERELVAAITRNGGSTYADSVKGRFTISRDNAKNTVYFQMNSLKPDDTAVYYCNAVAYIYSYAYPPYWGREHLNYWGQGTQLTVSS | low polyreactivity
10 | QVQLVDSGGGLFQAGGSHRLSFAASGSILRSNAMGWYRQAPGKERELVAVINGSGGRTYYADSVKGRFTISRDNAKNTVYLQMNSLKPEDTAVYYCNADPGGRYPRRGYAHEGDYWGQGTKVTVSS | low polyreactivity
11 | QVQLVDSGGGLVHAGGSLRLSCAASGRTFFINTMGWYRQPPGKEREFVAAITWSAGRTYYADSVKGRITISRDNAKNTVYLQMISLKPEDTAVYYCAAALDGHTFPFYYWGQGTQVTVSS | low polyreactivity
12 | QVQLVDSGGGLVHAGGSLSLSCAASGRIFSHYALGWYRQAPGKERELVAAISSRGGRTYYADSVKGRFTISRDNAKNTVYLQMNSLKPEDPAVYYCAAVIRSVYSYYEYDYWGQCTQVTVSS | high polyreactivity
13 | QVQLVDSGGGLVQAGASLRLSCAASGIIFWSYTMGWYRQAPGKERELVAAINWSGTRTYYADSVKGRFTISRDNAKNTVYLQMNSLKTEDTAVYYCNADSRYRSFDYWGQGTQVTVSS | high polyreactivity
14 | QVQLVDSGGGLVQAGASLRLSCAASGSTLSYYTMGWYRQAPGKERELVAAISWRGGSTYYADSVKGRFTISRDNAKNTVYLQMNSLKPEDTAVYYCATAIRGSPDSSLYYYWGQGTQVTLSS | high polyreactivity
15 | QVQLVDSGGGLVQAGCSIRITCSATGITFVANTKGWYRQEPVKERELVDTITSSGGSTYYADSVKGRFTISRDNAKNSVYLQMNSLKPEDTAVFYCAASDLRYRGNYVYLPSEYWGQGSQVTVSS | low polyreactivity
16 | QVQLVDSGGGLVQAGGILRLRFAASGYTFDKYAMGWYRQKPGKARELVAAITSLGGSKYYADSVKGRFTISRDHAKNTVYLQMNSLKPDVTAVYYCAAEYVAPVPRVHEEMYYWGQGTQVTVSS | high polyreactivity
17 | QVQLVDSGGGLVQAGGILRLSCAASGLTFYDNAMGWYRQAPAKERELVAAISDSGGSTYYADSVKGRFTISRDNAKNTVFLQMNSLKPEDTAVYYCAAAGWQANWEYEYWGQGTQVTVSS | high polyreactivity
18 | QVQLVDSGGGLVQAGGRLRLSCAASGFIYEPNAMGGYRQAPGKEMELVAAISSGGSTYADSVKGRFTISRDNAKNTVYLQMNSLKPEDTAVYYCAADSYYSVWGFYYWGQGTQVTVSS | low polyreactivity
19 | QVQLVDSGGGLVQAGGRLRLSCAASGRTFYRNAMGWDSQAPGKERELVAAITSGGSTYYADSVKGRFTISRDTAKNTGYLQMNSLKPEDTAVYYCAALRHALRYDYWGQGTQVTVSS | low polyreactivity
20 | QVQLVDSGGGLVQAGGRLRLSCAASGYILTHYAMGWYRQAPGKERELVAAITRVGNTNYADSVKGRFTISRDNAKNTVYLQMNSLKPEDTAVYSCAADGVASLFGDPPTEFDYWGQGTQVTVSS | low polyreactivity
21 | QVQLVDSGGGLVQAGGSLRISCAASGLIFSKNVMGWYRQAPGKEREFVAAISQRGGSTYYADSVKGRFTISRDIAKNTVYLQMNSLKPEDTAVYYCAADNTVSHEDYWGQGTQVTVSS | high polyreactivity
22 | QVQLVDSGGGLVQAGGSLRISCAASGNILIGNVMGWYRQAPGKERELVAAITSGGDTYYADSVKGRITISRDNAKNTVYLQMNSLKPEDTAVYYCAADRPGQPKYEYWGQGTQVTVSS | low polyreactivity

Row | Sequence | polyreactivity (PSR sort gate)
23 | QVQLVDSGGGLVQAGGSLRISCAASGYIFSANAMGWYRKAPGKEREFVAAISSTGGSTYYADSVKGRFTISRDTAKNTVYLQMNSLKTEDTSVYYFEAYIRRYFHYDYWGQGTQVTVSS | high polyreactivity
24 | QVQLVDSGGGLVQAGGSLRLSCAASGCTFGSYAMGWYRQAPGKERELVAGITGSGGRTYYADSVKGRFTISRDNAKNTVYLQMNSLKPEDTAVYYCATTGRRWYYPYHYWGQGTHVTVSS | high polyreactivity
25 | QVQLVDSGGGLVQAGGSLRLSCAASGFIFDINAMGWYRQAPGKERELVAAISYSGGSTYYADSVKGRFTISRDNAKNTVYLQMNSLKPEDTAVYYCAADCGPDSDEGDYWGQGTQVTVSS | low polyreactivity
26 | QVQLVDSGGGLVQAGGSLRLSCAASGFIFGKNAMGWYRQAPGKERELVAVISWRGSSTNYADSVKGRFTISRDNAKNTVYLQMNSLKPEDTAVYYCAARYPARGTLYYWGQGTQVTVSS | low polyreactivity
27 | QVQLVDSGGGLVQAGGSLRLSCAASGFIFVKYAMGWYRQAPGKERELVAAITTSGTGTFYADSVKGRFTISRDNAKNTVYLQMNSLKPEDTAVYYCNALGHPGDDWGQGTQVTVSS | low polyreactivity
28 | QVQLVDSGGGLVQAGGSLRLSCAASGFILGSNVMGWYRQAPGIERELVAAISYSGGSTYYADSVKGRFTISRDNAMNTVYLQMNILKPEDTAVYYCNARPSDVWYYYWGQGTQVTVSS | low polyreactivity
29 | QVQLVDSGGGLVQAGGSLRLSCAASGFNFDRNTMGWYRKAPGKERELVATISSTGTTNYADSVKGRFTISRDNAKNTVYLQMNSLKPEDTAVYYCNAYPRWRYVSYYRSYRYDYWGQGTQVTVSS | high polyreactivity
30 | QVQLVDSGGGLVQAGGSLRLSCAASGFTFGPYAMGWYRQAPGKERELGARITYRTGSTYYGDSVKGRFTISRDNAKNTVYLQINSLKPEDTAVYYCAAAYYCGQGTQVTVSS | high polyreactivity
31 | QVQLVDSGGGLVQAGGSLRLSCAASGFTFSYYVMGWYRQAPGKERELVAAITSSGGSTYYADSVKGRFTISRDNAKNTVSLQMISRNPEDTAVYYCNALVLSSEYGYWGLGTQVTVSS | high polyreactivity
32 | QVQLVDSGGGLVQAGGSLRLSCAASGFTFVYNVMGWNIQAPGKERELVAAINAGGGSTYYADSVKGRFTISRDNAKNTVYLQMNSLKPEDTAVYYGNARVRVRVGRNWSSYYYWGQGTQVTVSS | high polyreactivity
33 | QVQLVDSGGGLVQAGGSLRLSCAASGFTFYANAMGWYRQAPGTERELVAALSRGVSPTYADSVKGRFTISRDNGKNTVYLEMNSLKPEDTAVYYCASDGNVIAQGYDYWGQGTQVTVSS | low polyreactivity
34 | QVQLVDSGGGLVQAGGSLRLSCAASGGTFDTYAMGWYRQAPGKERELVAVIRASGGDTYYADSVKGRFTISRDNAKNTVYLQMNSLKPEDTAVYYCAAVLPFKYDYWGQGTQVTVSS | low polyreactivity
35 | QVQLVDSGGGLVQAGGSLRLSCAASGHTLAVNAMGWYRPAPGKERELVAAITSSGGSTSYADSEKGRFTISRDNAKNTVYLQMNSLKPEDTAVYYCAAEQRYPLIILYDYWGQGTQVTVSS | low polyreactivity
36 | QVQLVDSGGGLVQAGGSLRLSCAASGITFGNYAMGWYRQAPGKERELVASISWNVGSTYYADSVKGRFTISRDNAKNTVYLQMNSLKPEDTAVYYCARGYDRPRVATFHRFDYWGQGTQVTVSS | low polyreactivity
37 | QVQLVDSGGGLVQAGGSLRLSCAASGITFRGYAMGWYRQSPGKERELVATITSSGGSTYYADSVKGRFTISRDNAKNTVYLQMNSLKPEDTAVYYCAAVPYTRYSSSRGYWGQGTQVTVSS | high polyreactivity
38 | QVQLVDSGGGLVQAGGSLRLSCAASGITFWDNVMGWYRQATGKERELVATITYRGGSTYADSVKGRFTISRDNAKITVFLQMNSVKPEDTAVYYCNTGVTVDILSYDSWGQGTQVTVSS | low polyreactivity
39 | QVQLVDSGGGLVQAGGSLRLSCAASGLTFKRYAMGWYRQAPGKERQLVASITGNGGSSYYADSVKGRFTISRDNAKNTVYLQMNSLKPEDTAVYYCNARRYVRTSQQPLYDYWGQGTQVTVSS | high polyreactivity
40 | QVQLVDSGGGLVQAGGSLRLSCAASGNIFWENTMGSYRQAPGKERELVASISNTGTTNYADSVKGRFTISRDNAKNTVYLQMNSLKPEDTAVYDCNTDLWIDTASPAPNDDDYWGQGTQVTVSS | low polyreactivity
41 | QVQLVDSGGGLVQAGGSLRLSCAASGNTIGRNAMGWYRQAPGKEWELVAAISFSGSRTYYADSVKGRFTISRDNAKNSVYLQMNILKPEDTAVYNFIAPEGRKPYDSWVQGTQVTVSS | low polyreactivity
42 | QVQLVDSGGGLVQAGGSLRLSCAASGRIFAWYAMGWYRQAPGKERELVAAISSGGSTNYADSVKGRFTISRDNAKNTVYLQMNSLKPEDTAVYYCNRYPVRDTGGYWGQGTQVTVSS | low polyreactivity
43 | QVQLVDSGGGLVQAGGSLRLSCAASGRIFEGDAMGWYIQAPGKESDLVASISYDGGSTYYADSVKGRFTISRDNENITVELQMNSLKPEDTAVYYCAAVYRRRSYSFYYWGQGTQVTVSS | high polyreactivity
